Consider two molecules from patent US12492490 (University of California, dated 2025).

This assay addresses T1, human ephrin type-A receptor 2 (EphA2) (human, UniProt P29317 24-976).
T1 construct: whole, on cells; also called NP_004422
Kind of assay: not described.

T1 sequence (P29317 24-976): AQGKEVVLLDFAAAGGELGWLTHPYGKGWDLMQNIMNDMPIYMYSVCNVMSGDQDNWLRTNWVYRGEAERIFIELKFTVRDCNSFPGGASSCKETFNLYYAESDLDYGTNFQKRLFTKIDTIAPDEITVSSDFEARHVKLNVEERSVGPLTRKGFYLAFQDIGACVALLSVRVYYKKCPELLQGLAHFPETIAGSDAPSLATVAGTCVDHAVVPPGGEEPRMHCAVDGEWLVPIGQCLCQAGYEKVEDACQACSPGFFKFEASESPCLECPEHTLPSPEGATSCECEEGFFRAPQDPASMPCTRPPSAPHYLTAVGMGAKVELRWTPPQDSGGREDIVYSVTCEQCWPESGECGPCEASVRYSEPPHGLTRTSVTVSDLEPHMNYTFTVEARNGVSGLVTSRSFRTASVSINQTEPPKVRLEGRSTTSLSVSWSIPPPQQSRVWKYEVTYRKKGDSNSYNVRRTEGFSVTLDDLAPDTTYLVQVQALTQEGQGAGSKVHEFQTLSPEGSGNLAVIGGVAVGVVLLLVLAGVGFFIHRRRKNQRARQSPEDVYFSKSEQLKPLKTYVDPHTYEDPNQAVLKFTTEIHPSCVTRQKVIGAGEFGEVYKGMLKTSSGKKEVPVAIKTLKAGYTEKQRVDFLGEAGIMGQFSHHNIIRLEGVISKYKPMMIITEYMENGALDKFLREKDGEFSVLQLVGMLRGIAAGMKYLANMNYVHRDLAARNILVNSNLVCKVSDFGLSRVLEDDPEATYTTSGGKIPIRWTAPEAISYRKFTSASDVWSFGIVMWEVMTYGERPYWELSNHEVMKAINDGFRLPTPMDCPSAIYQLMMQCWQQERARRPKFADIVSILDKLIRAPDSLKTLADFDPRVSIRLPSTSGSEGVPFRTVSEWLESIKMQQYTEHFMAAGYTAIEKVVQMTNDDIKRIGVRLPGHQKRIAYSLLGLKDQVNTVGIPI

B1: HCA-M1 (antibody, V domains shown)
VH: QVQLVESGGGVVQPGRSLRLSCAASGFTFSSYAMHWVRQAPGKGLEWVAVISYDGSNKYYADSVKGRFTISRDNSKNTLYLQMNSLRAEDTAVYYCARAPAYSYGPFDYWGQGTLVTVSS
VL: SSELTQDPAVSVALGQTVRITCQGDSLRSYYASWYQQKPGQAPVLVIYGKNNRPSGIPDRFSGSSSGNTASLTITGAQAEDEADYYCHSRDSSGTHLRVFGGGTKVTVL
notes: also called IgG HCA-M1
Consider B1, for which the binding result is recorded as “no binding”.

B2: HCA-S1 (antibody, V domains shown)
VH: QVQLQESGGGLVQPGGSLRLSCAASGFTFSSYAMHWVRQAPGKGLEWVAVISYDGSNKYYADSVKGRFTISRDNSKNTLYLQMNSLRAEDTAVYYCARFSSGWYYFDYWGQGTLVTVSS
VL: DIQMTQSPSFLSASVGDRITITCRASHDISSYFAWYQQKPGKAPKPLIYAASTLQSGVPSRFSGSGSGTEFTLTISSLQPEDFATYYCQQLGSYPLTFGGGTKLEIK
notes: also called IgG HCA-S1
Turning to B2, the binding result is given as “no binding”.
